Measurements as given in patent publication US20110014287A1 (ALLERGAN, published 2011).

Legend:
[1] = target: T1, silk fibroin, substantially sericin-depleted, from Bombyx mori silk (Bombyx mori, UniProt P05790 22-5263; P21828 17-262, limits assumed); experiment: HPLC of 23RGD extracted from silk precipitates, across formulations
T1 construct: also called silk fibroin hydrogel; silk gel
Protocol: (§1) The amount of 23RGD bound to silk precipitates was quantified by analyzing lyophilized samples. The 23RGD was removed by incubating the samples for 4 hours in a dissolving buffer, then centrifuging on an Eppendorf 5415C (Eppendorf North America Inc., Westbury, N.Y.) at 16,000 g (RCF) for 30 minutes and the supernatant collected. This supernatant was then centrifuged in identical fashion and the final supernatant collected for HPLC analysis using a PerkinElmer Series 200 (PerkinElmer, Waltham, Mass.). The 23RGD peak areas from each curve were compared against a standard curve. 1-Way ANOVA was used to test for significant differences caused by changing silk concentration, 23RGD concentration, and accelerant volume. A Student's t-test was used to test the significance of differences resulting from altered ethanol concentrations.

[2] = target: T1, silk fibroin, substantially …; experiment: HPLC of 23RGD extracted from rinsed silk hydrogel, peak area against a 23RGD standard curve
Description: 23RGD-infused gels were studied to quantify the amount of 23RGD bound to the silk-hydrogel device as well as the quantity of free 23RGD which might be rinsed free of the device under relevant conditions. Briefly, samples of 23RGD-infused gel were cast and rinsed according to the methods above, with samples of rinse buffer being collected from each rinse for subsequent analysis by HPLC. Additionally, subsequent to the last rinse, the gel samples were mechanically pulverized by means of a stainless steel stirring rod and the adsorbed 23RGD removed by incubation for 4 hours in a dissolving buffer. This mixture of gel and solvent was then centrifuged on an Eppendorf 5415C at 16,000 g RCF for 30 minutes. The supernatant was collected and centrifuged another 30 minutes at 16,000 g RCF after which time the supernatant was collected in a sample vial for HPLC analysis. Samples of rinse buffer from the first and last rinse were centrifuged in the same fashion after being diluted with the same solvent the gel was extracted with in a volumetric ratio of 1 part rinse buffer to 4 parts solvent. To ensure 23RGD-hydrogel device rinse-exposed surface area was not a limiting factor, the same rinse and extraction process was performed upon devices pulverized after gelation and before rinsing.

[3] = target: T1, silk fibroin, substantially …; experiment: HPLC of 23RGD extracted from lyophilized silk precipitate, against standard curve; RHI formulation
Protocol: as §1

[4] = target: T1, silk fibroin, substantially …; experiment: HPLC of 23RGD extracted from lyophilized silk precipitate, against standard curve; AVHI formulation
Protocol: as §1

[5] = target: T1, silk fibroin, substantially …; experiment: HPLC of 23RGD extracted from lyophilized silk precipitate, against standard curve; AVLO formulation
Protocol: as §1

[6] = target: T1, silk fibroin, substantially …; experiment: HPLC of 23RGD extracted from lyophilized silk precipitate, against standard curve; BASE formulation
Protocol: as §1

[7] = target: T1, silk fibroin, substantially …; experiment: HPLC of 23RGD extracted from lyophilized silk precipitate, against standard curve; SCLO formulation
Protocol: as §1

[8] = target: T1, silk fibroin, substantially …; experiment: HPLC of 23RGD extracted from lyophilized silk precipitate, against standard curve; SCVLO formulation
Protocol: as §1

[9] = target: T1, silk fibroin, substantially …; experiment: HPLC of 23RGD extracted from lyophilized silk precipitate, against standard curve; formulation labelled RLO in this sentence
Protocol: as §1

[10] = target: T1, silk fibroin, substantially …; experiment: HPLC of 23RGD extracted from lyophilized silk precipitate, against standard curve; formulation labelled RMED in this sentence
Protocol: as §1

B1: 23RGD peptide (HOOC-GRGDIPASSKG4SRL6R-NH2) (peptide)
peptide: GRGDIPASSKGGGGSRLLLLLLR
modifications: not fully specified; C-terminal -NH2 as printed (HOOC-GRGDIPASSKG4SRL6R-NH2)
notes: also called amphiphilic peptide
- apparent saturation 23RGD:silk ratio [1]: ~10 23RGD:silk ratio
- 23RGD:silk ratio bound to the gel [2]: 3.35 23RGD:silk ratio
- 23RGD:silk ratio bound to the precipitate [3]: 10.7 23RGD:silk ratio
- 23RGD:silk ratio bound to the precipitate [4]: 10.5 23RGD:silk ratio
- 23RGD:silk ratio bound to the precipitate [5]: 5.2 23RGD:silk ratio
- 23RGD:silk ratio bound to the precipitate [6]: 8.7 23RGD:silk ratio
- 23RGD:silk ratio bound to the precipitate [7]: 9.9 23RGD:silk ratio
- 23RGD:silk ratio bound to the precipitate [8]: 11 23RGD:silk ratio
- 23RGD:silk ratio bound to the precipitate [9]: 1.1 23RGD:silk ratio
- 23RGD:silk ratio bound to the precipitate [10]: 6.95 23RGD:silk ratio
